We go through 6 sequences from the supplement of paper PMC11316812.

One series concerns MCF7. The experiment in a line: percentage of EdU-negative (G0-arrested) nuclei per well, 72 h; higher = more G0 arrest. As to conditions: reference: sequence is the full UniProt precursor, the tested protein was the secreted form or ectodomain.
The next series concerns hTERT-HMEC. The series is described as above. As to conditions: reference: sequence is the full UniProt precursor, the tested protein was the secreted form or ectodomain.
Setting [1] is: protein concentration 0.0225 µM.
Setting [2] is: protein concentration 0.0145714 µM.
Where [3] appears, read: protein concentration 0.145714 µM.
Where [4] appears, read: protein concentration 0.0076025 µM.
Setting [5] is: protein concentration 0.076025 µM.
Where [6] appears, read: protein concentration 0.03125 µM.
[7] abbreviates: protein concentration 0.3125 µM.

± gives the standard deviation of the averaged measurements.
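Further: secreted proteins added to cultured cells, EdU pulse at the end, nuclei found by Hoechst imaging, EdU status from nuclear versus surrounding ring intensity ratio, PBS as neutral control.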

Consider “MGLQACLLGLFALILSGKCSYSPEPDQRRTLPPGWVSLGRADPEEELSLTFALRQQNVERLSELVQAVSDPSSPQYGKYLTLENVADLVRPSPLTLHTVQKWLLAAGAQKCHSVITQDFLTCWLSIRQAELLLPGAEFHHYVGGPTETHVVRSPHPYQLPQALAPHVDFVGGLHRFPPTSSLRQRPEPQVTGTVGLHLGVTPSVIRKRYNLTSQDVGSGTSNNSQACAQFLEQYFHDSDLAQFMRLFGGNFAHQASVARVVGQQGRGRAGIEASLDVQYLMSAGANISTWVYSSPGRHEGQEPFLQWLMLLSNESALPHVHTVSYGDDEDSLSSAYIQRVNTELMKAAARGLTLLFASGDSGAGCWSVSGRHQFRPTFPASSPYVTTVGGTSFQEPFLITNEIVDYISGGGFSNVFPRPSYQEEAVTKFLSSSPHLPPSSYFNASGRAYPDVAALSDGYWVVSNRVPIPWVSGTSASTPVFGGILSLINEHRILSGRPPLGFLNPRLYQQHGAGLFDVTRGCHESCLDEEVEGQGFCSGPGWDPVTGWGTPNFPALLKTLLNP”, for which the “percentage of EdU-negative” value stood at 25.3 ± 1.4% in the series with MCF7 (setting [1]), 27.9 ± 4.2% with MCF7 (protein concentration 0.225 µM), 5.11 ± 0.24% in the series with hTERT-HMEC (setting [1]) and 10.72 ± 0.011% in the series on hTERT-HMEC (protein concentration 0.225 µM).
Regarding “MNPTLGLAIFLAVLLTVKGLLKPSFSPRNYKALSEVQGWKQRMAAKELARQNMDLGFKLLKKLAFYNPGRNIFLSPLSISTAFSMLCLGAQDSTLDEIKQGFNFRKMPEKDLHEGFHYIIHELTQKTQDLKLSIGNTLFIDQRLQPQRKFLEDAKNFYSAETILTNFQNLEMAQKQINDFISQKTHGKINNLIENIDPGTVMLLANYIFFRARWKHEFDPNVTKEEDFFLEKNSSVKVPMMFRSGIYQVGYDDKLSCTILEIPYQKNITAIFILPDEGKLKHLEKGLQVDTFSRWKTLLSRRVVDVSVPRLHMTGTFDLKKTLSYIGVSKIFEEHGDLTKIAPHRSLKVGEAVHKAELKMDERGTEGAAGTGAQTLPMETPLVVKIDKPYLLLIYSEKIPSVLFLGKIVNPIGK [Q8IW75]”, the “percentage of EdU-negative” value in the series on MCF7 (setting [2]) amounted to 26.6 ± 0.27%; with MCF7 (setting [3]), 29.1 ± 1.5%; with hTERT-HMEC (setting [2]) it was 6.15 ± 0.62%; with hTERT-HMEC (setting [3]), 15.6 ± 0.67%.
For the sequence “MRLAGPLRIVVLVVSVGVTWIVVSILLGGPGSGFPRIQQLFTSPESSVTAAPRARKYKCGLPQPCPEEHLAFRVVSGAANVIGPKICLEDKMLMSSVKDNVGRGLNIALVNGVSGELIEARAFDMWAGDVNDLLKFIRPLHEGTLVFVASYDDPATKMNEETRKLFSELGSRNAKELAFRDSWVFVGAKGVQNKSPFEQHVKNSKHSNKYEGWPEALEMEGCIPRRSTAS”, the “percentage of EdU-negative” value in the series with MCF7 (setting [1]) came to 24.6 ± 1.1%; in the series on MCF7 (protein concentration 0.225 µM), 25.8 ± 2.3%; in the series on hTERT-HMEC (setting [1]), 5.06 ± 0.4%; in the series on hTERT-HMEC (protein concentration 0.225 µM), 6.75 ± 0.34%.
As to “MALGQKLFITMSRGAGRLQGTLWALVFLGILVGMVVPSPAGTRANNTLLDSRGWGTLLSRSRAGLAGEIAGVNWESGYLVGIKRQRRLYCNVGIGFHLQVLPDGRISGTHEENPYSLLEISTVERGVVSLFGVRSALFVAMNSKGRLYATPSFQEECKFRETLLPNNYNAYESDLYQGTYIALSKYGRVKRGSKVSPIMTVTHFLPRI”, the “percentage of EdU-negative” value in the series on MCF7 (setting [4]) amounted to 25.3 ± 0.82%; with MCF7 (setting [5]), 25 ± 2.6%; in the series with hTERT-HMEC (setting [4]), 4.73 ± 0.69%; with hTERT-HMEC (setting [5]) it was 5.27 ± 0.17%.
On to “MEMLQGLLLLLLLSMGGAWASREPLRPWCHPINAILAVEKEGCPVCITVNTTICAGYCPTMMRVLQAVLPPLPQVVCTYRDVRFESIRLPGCPRGVDPVVSFPVALSCRCGPCRRSTSDCGGPKDHPLTCDHPQLSGLLFL”, for which the “percentage of EdU-negative” value with MCF7 (setting [6]) turned out to be 25.1 ± 1.9%; with MCF7 (setting [7]) it was 25.5 ± 0.84%; in the series on hTERT-HMEC (setting [6]), 5.24 ± 1%; in the series with hTERT-HMEC (setting [7]) it was 5.19 ± 1%.
In the case of “MLLLLLPLLWGRERAEGQTSKLLTMQSSVTVQEGLCVHVPCSFSYPSHGWIYPGPVVHGYWFREGANTDQDAPVATNNPARAVWEETRDRFHLLGDPHTKNCTLSIRDARRSDAGRYFFRMEKGSIKWNYKHHRLSVNVTALTHRPNILIPGTLESGCPQNLTCSVPWACEQGTPPMISWIGTSVSPLDPSTTRSSVLTLIPQPQDHGTSLTCQVTFPGASVTTNKTVHLNVSYPPQNLTMTVFQGDGTVSTVLGNGSSLSLPEGQSLRLVCAVDAVDSNPPARLSLSWRGLTLCPSQPSNPGVLELPWVHLRDAAEFTCRAQNPLGSQQVYLNVSLQSKATSGVTQGVVGGAGATALVFLSFCVIFVVVRSCRKKSARPAAGVGDTGIEDANAVRGSASQGPLTEPWAEDSPPDQPPPASARSSVGEGELQYASLSFQMVKPWDSRGQEATDTEYSEIKIHR [Q9Y336]”, the “percentage of EdU-negative” value with MCF7 (setting [1]) was 26.3 ± 0.23%; in the series with MCF7 (protein concentration 0.225 µM), 30.4 ± 0.4%; in the series on hTERT-HMEC (setting [1]), 5.01 ± 0.61%; in the series with hTERT-HMEC (protein concentration 0.225 µM), 4.21 ± 0.26%.
